From FireProtDB (doi:10.1021/bi972642d) come the findings set out here.

To fix the notation:
B1: Protein S100-G, P02633 (parent)
chain: MSAKKSPEELKGIFEKYAAKEGDPNQLSKEELKLLLQTEFPSLLKGPSTLDELFEELDKNGDGEVSFEEFQVLVKKISQ

The variants in this series derive from B1. The note with it: Bos taurus; pH 7; 25 °C; Urea; CD; Potassium phosphate 10 mM; structure 1IGV; whole UniProt chain shown.

For L27G, the “ddG of mutation (higher = less stable)” value stood at 4.28 kcal/mol, the denaturant m value was determined as 1.22 kcal/mol/M, the “denaturant midpoint (higher = more stable)” value (shortened to “denaturant midpoint”) stood at 1.8 M and the unfolding free energy is 2.27 kcal/mol.
The like results for L27A were, in that order, 3.73 kcal/mol, 1.03 kcal/mol/M, 2.7 M and 2.82 kcal/mol.
Take I77V: the “ddG of mutation (higher = less stable)” value stood at 1.53 kcal/mol, the denaturant m value was determined as 1.15 kcal/mol/M, the “denaturant midpoint” value was determined as 4.4 M and the unfolding free energy is 5.02 kcal/mol.
The like results for F70W were, in that order, 2.34 kcal/mol, 0.69 kcal/mol/M, 6.1 M and 4.21 kcal/mol.
As to F70A, the “ddG of mutation (higher = less stable)” value was 4.97 kcal/mol, the denaturant m value turned out to be 0.79 kcal/mol/M, the “denaturant midpoint” value amounted to 2 M and the unfolding free energy was found to be 1.58 kcal/mol.
The like results for F14A were, in that order, 4.83 kcal/mol, 0.88 kcal/mol/M, 2 M and 1.72 kcal/mol.
Consider V74L, for which the “ddG of mutation (higher = less stable)” value is 1.2 kcal/mol, the denaturant m value amounted to 0.81 kcal/mol/M, the “denaturant midpoint” value amounted to 6.6 M and the unfolding free energy stood at 5.35 kcal/mol.
The like results for V65G were, in that order, 4.35 kcal/mol, 0.86 kcal/mol/M, 2.6 M and 2.2 kcal/mol.
Consider V65A, for which the “ddG of mutation (higher = less stable)” value came to 3.78 kcal/mol, the denaturant m value came out at 0.81 kcal/mol/M, the “denaturant midpoint” value stood at 3.4 M and the unfolding free energy worked out at 2.77 kcal/mol.
For L10V, in that order: 2.2 kcal/mol, 1 kcal/mol/M, 4.3 M and 4.35 kcal/mol.
For L32A, the “ddG of mutation (higher = less stable)” value came to 2.7 kcal/mol, the denaturant m value came out at 1.03 kcal/mol/M, the “denaturant midpoint” value was found to be 3.8 M and the unfolding free energy came to 3.85 kcal/mol.
